We go through 19 molecules from patent US20230295310A1 (ABCELLERA BIOLOGICS, published 2023).

Substitutions are numbered along the chain they refer to.

In assay [1] the target is T1, human CD3 expressed on cells (human, UniProt P07766 23-207; P04234 22-171; P09693 23-182).
T1 construct: whole, on cells; CD3 complex on Jurkat cells and on human primary T cells
As to the kind of experiment: flow cytometry, 25 nM. The protocol:
(§1) Purified antibodies were confirmed to bind CD3 expressed on cells using the CytoFLEX S or LX flow cytometers (Beckman Coulter). Antibodies were diluted to 25 nM in FACS buffer (PBS+2% FBS) and were incubated with CD3-expressing cells for 30 minutes at 4° C. […] The median fluorescence intensity of the binding signal for each antibody was normalized to the isotype control to obtain a fold over isotype value. An antibody with a fold over isotype (FOI) of ≥10 was considered to be positive for binding.
(In general: A flow cytometer gives signals particle by particle.)

Assay [2] has as its target T2, cynomolgus monkey CD3 expressed on primary T cells (cynomolgus monkey, UniProt Q95LI5 22-198; Q95LI8 22-171; Q95LI7 23-181).
T2 construct: whole, on cells; CD3 complex on purified cynomolgus monkey T cells; also called cyno CD3
As to the kind of experiment: flow cytometry, 25 nM, cyno primary T cells. On the procedure:
as §1

T2 sequence (Q95LI5 22-198, chain 1 of 3): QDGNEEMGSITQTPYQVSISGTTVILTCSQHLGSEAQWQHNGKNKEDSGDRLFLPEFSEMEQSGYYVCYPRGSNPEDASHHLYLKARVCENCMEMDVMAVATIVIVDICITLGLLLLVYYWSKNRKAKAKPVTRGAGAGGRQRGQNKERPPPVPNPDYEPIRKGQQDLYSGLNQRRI
T2 sequence (Q95LI8 22-171, chain 2 of 3): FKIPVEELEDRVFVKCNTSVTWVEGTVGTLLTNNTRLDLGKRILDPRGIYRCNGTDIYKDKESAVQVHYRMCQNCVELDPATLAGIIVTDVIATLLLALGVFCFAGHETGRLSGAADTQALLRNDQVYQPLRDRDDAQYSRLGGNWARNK
T2 sequence (Q95LI7 23-181, chain 3 of 3): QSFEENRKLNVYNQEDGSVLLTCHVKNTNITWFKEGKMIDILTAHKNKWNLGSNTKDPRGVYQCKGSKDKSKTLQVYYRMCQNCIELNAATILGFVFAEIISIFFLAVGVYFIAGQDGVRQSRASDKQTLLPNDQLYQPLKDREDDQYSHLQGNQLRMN
T1 sequence (P07766 23-207, chain 1 of 3): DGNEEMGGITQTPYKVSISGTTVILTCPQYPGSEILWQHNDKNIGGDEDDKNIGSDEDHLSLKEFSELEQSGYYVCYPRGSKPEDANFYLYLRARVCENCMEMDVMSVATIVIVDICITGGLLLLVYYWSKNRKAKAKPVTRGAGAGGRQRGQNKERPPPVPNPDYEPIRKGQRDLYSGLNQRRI
T1 sequence (P04234 22-171, chain 2 of 3): as the sequence (Q95LI8 22-171, chain 2 of 3) above, with V5I, K15N, V20I, T32S, N33D, N34I, A64T, N74S, L83V, R141H counted along it
T1 sequence (P09693 23-182, chain 3 of 3): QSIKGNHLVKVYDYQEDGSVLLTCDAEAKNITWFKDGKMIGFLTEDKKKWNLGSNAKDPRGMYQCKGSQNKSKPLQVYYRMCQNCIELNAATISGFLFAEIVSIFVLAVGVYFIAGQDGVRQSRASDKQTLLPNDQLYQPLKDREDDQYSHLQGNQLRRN

B1: mAb 85 (antibody, V domains shown)
VH: QVQLVQSGAEVKKPGASVKVSCKASGYTVTGYYMHWVRQAPGQGLEWMGWINPNSGGTNFAQNFQGRVTMTRDTSISTFYMDLNRLRSDDTAVYYCARGGAPVSYWFFDLWGRGTLVTVSS
VL: DIQMTQSPSSLSASVGDRVTITCRASQSISRYLNWYQQKPGKAPKVLIYNTSSLKSGVPSRFSGSGSGTDFTLTISSLQPEDFGTFYCQQSHSTPFTFGPGTKVDIK
With B1, in assay [1], the “Human primary T Cell Binding (FOI)” value worked out at 195 FOI and the “Jurkat Cell Binding (FOI)” value was found to be 181 FOI. Moreover, in assay [2], the binding result is “no binding (tested: FOI >=10 = positive)”.

B2: mAb 66 (antibody, V domains shown)
VH: B1 VH with N84S
VL: B1 VL with G84A, F86L
Regarding B2, in assay [1], the “Human primary T Cell Binding (FOI)” value worked out at 192 FOI and the “Jurkat Cell Binding (FOI)” value was 172 FOI. Moreover, the binding result in assay [2] is “no binding (tested: FOI >=10 = positive)”.

B3: mAb 79 (antibody, V domains shown)
VH: B1 VH with T28I, Q43H, R87T
VL: B1 VL with S28N, S30N, R31S, Q37H, S53T, D70Y, G84A
For the molecule B3, in assay [1], the “Human primary T Cell Binding (FOI)” value was determined as 199 FOI and the “Jurkat Cell Binding (FOI)” value is 171 FOI. Also, the binding result in assay [2] was “no binding (tested: FOI >=10 = positive)”.

B4: mAb 72 (antibody, V domains shown)
VH: EVQLVDSGGGLVQPGGSLRLSCAASGFTFSSYWMSWVRQAPGKGLEWVANIKQDGSEKYYVDSVKGRFTISRDNVKNSLSLEMNSLRAEDTALYYCARDESSSWYWYFDLWGRGTLVTVSS
VL: DIQMTQSPSTLSASVGDRVTITCRASQSISKWLAWYQQKPGKAPKLLIYKASSLENGVPSRFSGSGSGTEFTLTISSLQPDDFATYYCQQYSSYSRTFGQGTKVEIK
Consider B4, for which, in assay [1], the “Human primary T Cell Binding (FOI)” value came to 91.4 FOI and the “Jurkat Cell Binding (FOI)” value turned out to be 98.7 FOI. The binding result in assay [2] is “no binding (tested: FOI >=10 = positive)”.

B5: mAb 50 (antibody, V domains shown)
VH: QAQLVQSGSELKKPGASVKVSCKASGYTFTRHAMNWVRQAPGQGLEWMGWINTNTGNPTYAQGFTGRFVFSLDTSVTTAYLQISSLKAEDTAVYYCAREGDYDFWSGFFNFDYWGQGTLVTVSS
VL: DIQMTQSPSSLSASVGDRVTITCRASQGIRNDLGWFQQKPGKAPTRLIYAASSLQSGVPSRFSGSGSGAEFTLTISSLQPEDFATYYCLQHNSYPRTFGQGTKVEIK
With B5, in assay [1], the “Human primary T Cell Binding (FOI)” value worked out at 86.4 FOI and the “Jurkat Cell Binding (FOI)” value came to 92.5 FOI. Besides, the binding result in assay [2] was “no binding (tested: FOI >=10 = positive)”.

B6: mAb 55 (antibody, V domains shown)
VH: QVQLEQSGAEVKKPGASVKVSCKTSGYIFANYDINWVRQATGQGLEWMGWMNPKSGKAGYAQKFQGRVTMTSNTPINTAYMELSSLRSEDTAVYYCAREGHYDFWRGFYSFDYWGQGILVTVSS
VL: B5 VL with F36Y, T45K, A50T, A69T, Y87F, H91Y, S93T, R96Y, V104L
Take B6: in assay [1], the “Human primary T Cell Binding (FOI)” value came out at 104 FOI and the “Jurkat Cell Binding (FOI)” value was found to be 151 FOI. Also, the binding result in assay [2] is recorded as “no binding (tested: FOI >=10 = positive)”.

B7: mAb 71 (antibody, V domains shown)
VH: QVQLVQSGAEVRKPGASVKVSCKASGYTFTKYDVNWVRQAPGQGLEWMGWMNSNNGNIGYAQKFQGRVTMTRKTSISTAYMELSSLRSEDTAVYYCAREGHYDFWRGFYNFDYWGQGTLVTVSS
VL: B5 VL with G28D, R30K, F36Y, T45K, A69T, S93F, R96I, K103R, V104L
With B7, in assay [1], the “Human primary T Cell Binding (FOI)” value stood at 108 FOI and the “Jurkat Cell Binding (FOI)” value came to 100 FOI. In addition, in assay [2], the binding result is recorded as “no binding (tested: FOI >=10 = positive)”.

B8: mAb 67 (antibody, V domains shown)
VH: EVQLVESGGDLVQPGRSLRLSCAASGFTFDDCVIHWVRQAPGKGLEWVSGITWNSGRIGYADSVKGRFTISRDNAKNSLYLQMNSLRVEDTALYYCAKEGNYDFWSTYYRGYFDLWGRGTLVTVSS
VL: B5 VL with F36Y, K42I, T45K, S56G, S60L, A69T, R96Y, V104L
As for B8, in assay [1], the “Human primary T Cell Binding (FOI)” value stood at 72.4 FOI and the “Jurkat Cell Binding (FOI)” value amounted to 70.2 FOI. Moreover, the binding result in assay [2] is reported as “no binding (tested: FOI >=10 = positive)”.

B9: mAb 53 (antibody, V domains shown)
VH: QVQLVQSGAEVKKPGASVKVSCKASGYTFTSYDINWVRQATGQGLEWMGWMNPKSGKTGYAQKFQGRITMTRNTPISTVYMDLSSLRSEDTAVYYCAREGHYDFWTGYYSFDYWGQGTLVTVSS
VL: B5 VL with F36Y, K39T, T45K, A69T, N92Y, R96Y, V104L
In the case of B9, in assay [1], the “Human primary T Cell Binding (FOI)” value was determined as 34.8 FOI and the “Jurkat Cell Binding (FOI)” value was 44.6 FOI. Further, the binding result in assay [2] is recorded as “no binding (tested: FOI >=10 = positive)”.

B10: mAb 73 (antibody, V domains shown)
VH: EVELVESGGGLVQPGRSLRLSCAASGFTFDDKVMHWVRQAPGKGLEWVSCINWNSGHIGYADSVKGRFTISRDNARTSLYLQMNSLRPEDTALYYCVREGNYDFWSGYYRGFFDLWGRGTLVTVSS
VL: B5 VL with F36Y, T45K, S56G, A69T, N92T, R96F, V104L
Turning to B10, in assay [1], the “Human primary T Cell Binding (FOI)” value turned out to be 74.5 FOI and the “Jurkat Cell Binding (FOI)” value is 109 FOI. In addition, the binding result in assay [2] is “no binding (tested: FOI >=10 = positive)”.

B11: mAb 46 (antibody, V domains shown)
VH: EGQLVESGGGLVQPGGSLRLSCVASGFTLSSYTLNWVRQAPGKGLEWVSYISSTSRTIYYSDSVKGRFTISRDNAKNSLYLQMNSLRDEDTALYYCAREDYYDSSGFDYWGQGTLVTVSS
VL: AIRMTQSPSSFSASTGDRVTITCRASQGISSYLAWYQQKPGKAPKLLIYTASTLQSGVPSRFSGSGSGTDFTLTIRSLQSEDFATYYCQQYYSYPRTFGQGTKVEIK
As to B11, in assay [1], the “Human primary T Cell Binding (FOI)” value is 96.9 FOI and the “Jurkat Cell Binding (FOI)” value stood at 107 FOI. In addition, the binding result in assay [2] is “no binding (tested: FOI >=10 = positive)”.

B12: mAb 49 (antibody, V domains shown)
VH: B11 VH with G2V, Q13P, S30R, L34M, K43Q, V48I, M83V, Y109C
VL: B11 VL with S30F, S31N, T50S, A51T, S77G, F83L, Y94F, E105D
B12: in assay [1], the “Human primary T Cell Binding (FOI)” value is 191 FOI and the “Jurkat Cell Binding (FOI)” value came out at 178 FOI. Further, the binding result in assay [2] was “no binding (tested: FOI >=10 = positive)”.

B13: mAb 51 (antibody, V domains shown)
VH: B11 VH with G2V, V23A, L34M, T54S, T69S, Y109N
VL: B11 VL
Turning to B13, in assay [1], the “Human primary T Cell Binding (FOI)” value amounted to 102 FOI and the “Jurkat Cell Binding (FOI)” value amounted to 99.8 FOI. In assay [2], the binding result was “no binding (tested: FOI >=10 = positive)”.

B14: mAb 65 (antibody, V domains shown)
VH: QVQLVESGGGVVQPGRSLRLSCAASGFTFSGYGMHWVRQAPGKGLDWVAIIYYNGNNKYYADSVKGRFTISRDNSKNTLYLQMNSLRAEDTAVYYCARGGGYNWFDPWGQGTLVIVSS
VL: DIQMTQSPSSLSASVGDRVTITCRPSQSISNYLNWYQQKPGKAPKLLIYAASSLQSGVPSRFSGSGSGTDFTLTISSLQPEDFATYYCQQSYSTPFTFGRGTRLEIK
With B14, in assay [1], the “Human primary T Cell Binding (FOI)” value is 199 FOI and the “Jurkat Cell Binding (FOI)” value worked out at 184 FOI. The binding result in assay [2] is listed as “no binding (tested: FOI >=10 = positive)”.

B15: mAb 86 (antibody, V domains shown)
VH: B14 VH with V5A, A23E, N54D, N56K, I115T
VL: DIQMTQSPSSLSASVGDRVTITCRPSQTISKYLNWYQQKPGKAPKLLIYAASSLQSGVPSRFSGSGSGTDFTLTISSLQPEDFATYYCQQSYITPITFGRGTRLEIK
Regarding B15, in assay [1], the “Human primary T Cell Binding (FOI)” value is 189 FOI and the “Jurkat Cell Binding (FOI)” value was found to be 175 FOI. The binding result in assay [2] is reported as “no binding (tested: FOI >=10 = positive)”.

B16: mAb 81 (antibody, V domains shown)
VH: B14 VH with V5A, N54D, N56K, I115T
VL: B15 VL with K31N, K39D, I93S
For B16, in assay [1], the “Human primary T Cell Binding (FOI)” value was 158 FOI and the “Jurkat Cell Binding (FOI)” value stood at 165 FOI. Further, the binding result in assay [2] was “no binding (tested: FOI >=10 = positive)”.

B17: mAb 83 (antibody, V domains shown)
VH: B14 VH
VL: B15 VL with T28I, S30I, K31N, I93S, I96F
On to B17, for which, in assay [1], the “Human primary T Cell Binding (FOI)” value was determined as 173 FOI and the “Jurkat Cell Binding (FOI)” value was 161 FOI. In assay [2], the binding result is “no binding (tested: FOI >=10 = positive)”.

B18: mAb 52 (antibody, V domains shown)
VH: QVQLVQSGAEVKKPGASVKVSCKASGYTFTSHDINWVRQATGQGLEWMGWLNPNSGKTGYAQKFQGRVTMARDTSMYTADMELSSLRFEDTAVYYCARVGHYDMWPGFFSFDYWGQGTLVTVSS
VL: DIQMTQSPSSLSASVGDRIIITCRASQDIRNDLGWYQQKPGKAPKRLIYAASSLQSGVPSRFSGSRSGTEFTLTISSLHPEDFATYYCLQHRSYPYTFGQGTNLEIK
With B18, in assay [1], the “Human primary T Cell Binding (FOI)” value worked out at 185 FOI and the “Jurkat Cell Binding (FOI)” value amounted to 181 FOI. The binding result in assay [2] is listed as “no binding (tested: FOI >=10 = positive)”.

B19: mAb 54 (antibody, V domains shown)
VH: EVQLEESGGGLVQPGGSLRLSCAASGFTFSRYSMNWVRQAPGKGLEWFSYISSSSRTIYYADSVKGRFTMSRDNAKNSLYLQMNSLRDEDTAVYFCARGDYYDSEGMDVWGKGTTVTVSS
VL: DIQMTQSPSTLSASVGDRVTITCRASQTITTWLAWYQQKPGKAPKLLIYKASTLESGVPSRFSGSGSGTEFTLTISSLQPDDFATYHCQQYKTFSYTFGQGTKLDIK
Turning to B19, in assay [1], the “Human primary T Cell Binding (FOI)” value was 98.5 FOI and the “Jurkat Cell Binding (FOI)” value is 111 FOI. Further, the binding result in assay [2] is listed as “no binding (tested: FOI >=10 = positive)”.
